Data reported in patent US20140274782A1, “AFFINITY REAGENTS AND METHODS FOR DETECTION, PURIFICATION, AND PROTEOMIC ANALYSIS OF METHYLATED PROTEINS” (The Board of Trustees of the Leland Stanford Junior …, priority 2013, published 2014).

Experiments:
G9a and GLP = molecular target: T1, G9a and GLP (Homo sapiens, UniProt Q96KQ7+Q9H9B1); test: Triple SILAC pull-down after UNC0638 treatment of 293T cells, DMSO/UNC0638 ratio of protein captured by 3×MBT; type: cell-based; conditions: for Relative to UNC0638 UNC Heavy: UNC0638 in heavy SILAC media; for Relative to UNC0638 UNC Light: UNC0638 in light SILAC media; for Relative to UNC0638 Average: average of UNC Light and UNC Heavy experiments;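 for all read-outs here: mass spectrometry (Q-Exactive) SILAC quantitation, DMSO/UNC0638 ratio computed after subtracting 3×MBTD355N mutant pull-down background, only proteins with at least twofold 3×MBT over mutant signal considered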
T1 construct: endogenous in cells; host or cells: HEK 293T
T1 sequence (Q96KQ7 2-1210 limits assumed): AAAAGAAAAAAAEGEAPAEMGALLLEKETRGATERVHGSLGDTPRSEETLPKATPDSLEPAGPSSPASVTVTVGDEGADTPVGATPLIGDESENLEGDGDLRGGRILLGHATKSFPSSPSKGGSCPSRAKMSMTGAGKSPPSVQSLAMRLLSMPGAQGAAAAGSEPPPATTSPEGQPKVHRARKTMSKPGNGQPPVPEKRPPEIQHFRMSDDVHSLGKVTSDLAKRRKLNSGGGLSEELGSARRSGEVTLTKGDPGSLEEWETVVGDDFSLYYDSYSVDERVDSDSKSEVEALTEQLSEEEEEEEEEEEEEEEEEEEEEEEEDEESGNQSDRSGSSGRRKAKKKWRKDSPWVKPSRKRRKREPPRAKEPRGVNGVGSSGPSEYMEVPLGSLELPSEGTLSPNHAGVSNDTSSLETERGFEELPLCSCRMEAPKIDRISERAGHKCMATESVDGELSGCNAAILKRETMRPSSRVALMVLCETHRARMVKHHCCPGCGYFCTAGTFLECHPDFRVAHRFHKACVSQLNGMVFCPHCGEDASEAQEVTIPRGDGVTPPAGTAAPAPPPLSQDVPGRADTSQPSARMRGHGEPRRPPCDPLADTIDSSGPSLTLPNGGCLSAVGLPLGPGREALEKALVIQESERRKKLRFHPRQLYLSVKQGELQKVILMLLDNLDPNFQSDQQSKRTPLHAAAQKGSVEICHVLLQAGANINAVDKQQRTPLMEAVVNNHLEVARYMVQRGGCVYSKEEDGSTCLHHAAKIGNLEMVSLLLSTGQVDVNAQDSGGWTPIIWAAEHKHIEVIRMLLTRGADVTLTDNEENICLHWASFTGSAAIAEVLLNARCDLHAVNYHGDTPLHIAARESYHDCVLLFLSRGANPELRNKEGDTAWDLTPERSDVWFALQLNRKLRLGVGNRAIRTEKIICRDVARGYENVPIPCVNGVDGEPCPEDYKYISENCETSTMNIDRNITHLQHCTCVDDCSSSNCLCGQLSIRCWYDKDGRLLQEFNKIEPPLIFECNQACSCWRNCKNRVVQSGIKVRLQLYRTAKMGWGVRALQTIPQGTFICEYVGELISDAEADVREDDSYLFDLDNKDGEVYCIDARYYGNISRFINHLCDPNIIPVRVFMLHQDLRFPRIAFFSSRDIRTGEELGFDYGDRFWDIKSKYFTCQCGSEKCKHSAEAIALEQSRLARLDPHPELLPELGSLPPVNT
T1 sequence (Q9H9B1 2-1298 limits assumed): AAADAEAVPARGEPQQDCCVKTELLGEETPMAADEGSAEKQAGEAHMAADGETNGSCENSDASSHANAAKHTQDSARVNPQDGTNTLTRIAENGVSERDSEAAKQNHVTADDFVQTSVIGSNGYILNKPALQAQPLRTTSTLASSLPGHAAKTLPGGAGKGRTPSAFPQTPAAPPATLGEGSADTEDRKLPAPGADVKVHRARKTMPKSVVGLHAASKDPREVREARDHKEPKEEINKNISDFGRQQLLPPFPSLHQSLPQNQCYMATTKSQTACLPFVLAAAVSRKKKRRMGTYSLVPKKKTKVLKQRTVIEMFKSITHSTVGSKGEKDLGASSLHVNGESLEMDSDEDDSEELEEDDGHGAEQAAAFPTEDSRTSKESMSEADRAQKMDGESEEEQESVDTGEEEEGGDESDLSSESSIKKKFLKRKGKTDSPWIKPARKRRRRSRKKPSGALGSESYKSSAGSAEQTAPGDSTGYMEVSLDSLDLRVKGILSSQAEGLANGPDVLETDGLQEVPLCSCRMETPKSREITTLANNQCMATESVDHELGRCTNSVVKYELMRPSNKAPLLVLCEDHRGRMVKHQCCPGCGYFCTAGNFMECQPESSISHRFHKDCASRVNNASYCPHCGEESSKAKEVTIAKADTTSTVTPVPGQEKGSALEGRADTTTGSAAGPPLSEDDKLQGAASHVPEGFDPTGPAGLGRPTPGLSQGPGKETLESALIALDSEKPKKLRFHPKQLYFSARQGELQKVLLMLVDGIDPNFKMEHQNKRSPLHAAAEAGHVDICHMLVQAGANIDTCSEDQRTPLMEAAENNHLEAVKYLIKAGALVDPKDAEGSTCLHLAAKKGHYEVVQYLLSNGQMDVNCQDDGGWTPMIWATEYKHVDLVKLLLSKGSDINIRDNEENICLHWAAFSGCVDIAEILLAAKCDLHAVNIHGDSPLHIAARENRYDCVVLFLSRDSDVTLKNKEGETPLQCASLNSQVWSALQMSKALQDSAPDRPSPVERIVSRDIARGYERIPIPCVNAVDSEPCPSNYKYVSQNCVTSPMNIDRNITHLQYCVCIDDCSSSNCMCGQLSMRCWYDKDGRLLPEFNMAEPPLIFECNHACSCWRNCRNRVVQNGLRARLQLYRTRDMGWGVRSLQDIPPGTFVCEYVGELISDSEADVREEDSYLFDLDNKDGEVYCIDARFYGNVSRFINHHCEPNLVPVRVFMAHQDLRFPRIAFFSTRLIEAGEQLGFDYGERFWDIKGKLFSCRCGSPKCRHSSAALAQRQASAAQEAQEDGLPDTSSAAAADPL

3×MBT domain of L3MBTL1 = test: Triple SILAC pull-down, 3xMBT/3xMBTD355N ratio (cytoplasmic, nuclear and chromatin fractions of 293T cells); type: binding, human; conditions: for 3xMBT/D355N UNC Heavy: experiment with UNC0638 in heavy SILAC media; for 3xMBT/D355N UNC Light: experiment with UNC0638 in light SILAC media;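 for all read-outs here: proteins quantified with MaxQuant, requiring at least two unique peptides and quantification in both label directions, normalized to the mean of proteins from a digested loading control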
[1] = SILAC ratio DMSO relative to UNC0638, pull-down with 3xMBT, all values in log base 2
[2] = SILAC ratio 3xMBT vs 3xMBTD355N pull-down, 293T cells, all values in log base 2
[3] = SILAC ratio DMSO/UNC0638 of protein pulled down with 3xMBT
[4] = SILAC ratio, pull-down 3xMBT vs 3xMBTD355N

Relative to UNC0638 UNC Heavy (G9a and GLP; [1]) [log base 2] | Relative to UNC0638 UNC Light (G9a and GLP; [1]) [log base 2] | Relative to UNC0638 Average (G9a and GLP; all values in log base 2) [log base 2] | Relative to UNC0638 UNC Heavy (G9a and GLP; [3]) [log base 2] | Relative to UNC0638 UNC Light (G9a and GLP; [3]) [log base 2] | Relative to UNC0638 Average (G9a and GLP) [log base 2] | Substance | 3xMBT/D355N UNC Heavy (3×MBT domain of L3MBTL1; [2]) [log base 2] | 3xMBT/D355N UNC Light (3×MBT domain of L3MBTL1; [2]) [log base 2] | 3xMBT/D355N UNC Heavy (3×MBT domain of L3MBTL1; [4]) [log base 2] | 3xMBT/D355N UNC Light (3×MBT domain of L3MBTL1; [4]) [log base 2]
−0.03 | −0.77 | −0.40 | – | – | – | EEF1G | −0.67 | −0.28 | – | –
– | – | – | 0.36 | 0.33 | 0.34 | EFTUD2 | – | – | 1.98 | 2.07
– | – | – | 0.30 | 0.05 | 0.18 | EIF4A1 | – | – | 3.59 | 3.68
−0.32 | 0.03 | −0.15 | – | – | – | EIF4B | 3.26 | 2.50 | – | –
– | – | – | 0.04 | 0.31 | 0.18 | EIF4E | – | – | 2.40 | 2.40
– | – | – | 0.07 | 0.25 | 0.16 | EIF4G1 | – | – | 3.18 | 3.31
– | – | – | 0.21 | 0.36 | 0.29 | ELAVL1 | – | – | 1.93 | 2.42
−0.64 | 0.63 | −0.01 | – | – | – | EPRS | 0.46 | 1.98 | – | –
– | – | – | 0.57 | 0.19 | 0.38 | FAM98A | – | – | 2.99 | 4.03
0.58 | −0.59 | 0.00 | – | – | – | FBXO22 | 3.56 | 0.77 | – | –
−1.93 | −0.07 | −1.00 | – | – | – | FERMT2 | 3.33 | 1.42 | – | –
– | – | – | 0.20 | 0.20 | 0.20 | FOCAD | – | – | 1.83 | 2.73
– | – | – | 1.23 | −1.01 | 0.11 | FXR1 | – | – | 1.60 | 1.73
– | – | – | 0.23 | 0.15 | 0.19 | G3BP1 [Hit G3BP1] | – | – | 2.02 | 2.72
−0.20 | −0.01 | −0.10 | – | – | – | G6PD [Hit G6PD] | 0.75 | 1.96 | – | –
0.14 | −0.24 | −0.05 | – | – | – | GAPDH | 1.86 | 1.59 | – | –
0.36 | −0.45 | −0.05 | – | – | – | GRB2 | 3.13 | 1.36 | – | –
– | – | – | 0.24 | 0.09 | 0.17 | GRWD1 | – | – | 2.87 | 2.55
– | – | – | 0.41 | 0.03 | 0.22 | GSK3B | – | – | 1.95 | 2.25
– | – | – | 1.93 | −0.06 | 0.93 | GTF3C1 | – | – | 0.63 | 2.08
– | – | – | 0.23 | 0.22 | 0.23 | HDGF | – | – | 1.65 | 2.78
– | – | – | 0.18 | 0.15 | 0.17 | HIST1H1C | – | – | 5.16 | 4.61
– | – | – | 0.09 | 0.32 | 0.20 | HNRNPAB | – | – | 4.00 | 4.21
